Series [1] concerns the target mouse serum albumin (MSA) (Mus musculus, UniProt P07724). As to the kind of experiment: Surface plasmon resonance, steady-state affinity. The note with it: not ISAz treated; mean (s.d.) of 4-8 experiments; n.d. = no binding detected. On the technique in general: Surface plasmon resonance follows binding to a sensor surface in real time, without labels.
Series [2] can be described thus: Half-life from blood samples by GFP ELISA after injection. To be noted: intravenous, 50 μg, no ISAz treatment. In kind it is in vivo, C57BL/6 mice. On the procedure:
The half-lives of ELP-GFP constructs were calculated from concentrations measured from blood samples collected over the course of a week. The experiments were initiated by injecting 120 μL of 10 μM ELP-GFP intravenously or subcutaneously. At indicated times, 2 μL blood was collected from a tail puncture, and diluted 1:25 in heparin tubes. The blood sample was vortexed briefly and cells were pelleted by centrifugation (2 min at 14,000 g). The soluble fraction was collected and frozen at −20° C. until analysis. ELP-GFP concentrations of the samples were determined using a GFP ELISA Kit (Abcam, cat. #ab171581). The samples were diluted in PBS as needed, to ensure that the concentration fell within the quantifiable range of the standard curve.
Next, experiments were designed to determine if the tighter binding affinity translates into prolonged half-life in C57BL/6J mice. A total of 50 μg of each protein variant (10 μM in PBS) was injected intravenously, and blood was collected after 1, 4, 8, 16 and 24 hours, followed by daily collections through seven days. The blood levels of ELP(nFA)-GFP constructs were measured using a GFP-specific ELISA, and their pharmacokinetic profiles were calculated (see FIGS. 7F and 7G).
A general note: ELISA stands for enzyme-linked immunosorbent assay.

By half-life is commonly meant how long it takes for the measured level to halve. Low values mean fast loss, high ones slow loss.

Sequence of mouse serum albumin (MSA) (P07724 25-608): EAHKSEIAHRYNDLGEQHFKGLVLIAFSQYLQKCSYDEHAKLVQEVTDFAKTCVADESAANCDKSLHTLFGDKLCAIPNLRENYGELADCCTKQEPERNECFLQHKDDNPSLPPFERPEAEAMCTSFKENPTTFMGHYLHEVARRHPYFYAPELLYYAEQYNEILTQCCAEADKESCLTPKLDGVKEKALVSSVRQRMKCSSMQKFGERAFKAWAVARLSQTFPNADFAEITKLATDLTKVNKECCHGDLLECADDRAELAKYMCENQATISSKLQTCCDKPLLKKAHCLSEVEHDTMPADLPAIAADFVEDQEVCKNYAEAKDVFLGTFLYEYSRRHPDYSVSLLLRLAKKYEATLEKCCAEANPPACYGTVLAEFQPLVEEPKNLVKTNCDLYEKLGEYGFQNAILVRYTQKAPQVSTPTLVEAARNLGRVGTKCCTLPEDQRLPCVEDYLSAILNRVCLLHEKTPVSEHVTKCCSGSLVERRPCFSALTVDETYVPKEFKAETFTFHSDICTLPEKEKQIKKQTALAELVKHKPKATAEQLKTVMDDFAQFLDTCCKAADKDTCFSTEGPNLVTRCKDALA

B1: ELP(0FA)GFP: ELP-GFP fusion, 10 pentadecapeptide repeats with tyrosine at the guest residue, no conjugated fatty acids (SEQ ID NO:33) (protein)
chain: MSKGPGVPGGGVPGAGVPGYGVPGGGVPGAGVPGYGVPGGGVPGAGVPGYGVPGGGVPGAGVPGYGVPGGGVPGAGVPGYGVPGGGVPGAGVPGYGVPGGGVPGAGVPGYGVPGGGVPGAGVPGYGVPGGGVPGAGVPGYGVPGGGVPGAGVPGYGPGGGG
Consider B1, for which the “KD MSA” value in series [1] was “no detectable binding”. Moreover, the half-life in series [2] was 1.7 h.

The values are drawn from patent US20250270289A1, “SEQUENCE-DEFINED POLYMERS WITH ONE OR MORE AZIDES, METHODS OF MAKING, AND METHODS OF USE THEREOF” (Yale University, priority 2021, published 2025).
